Source: paper PMC11734896, “Engineering dimer mutants of human geranylgeranyl pyrophosphate synthase” (PLOS ONE, 2025)
Numbering of substitutions follows the chain as printed. Names may count otherwise.

How the values were obtained:
[1] = biological target: T1, geranylgeranyl pyrophosphate synthase (GGPPS) (Homo sapiens, UniProt O95749, Y246D/C247L)
T1 construct: gene GGPS1

[2] = biological target: the molecule itself; experiment: SEC; HiLoad 16/600 Superdex 200 step of the purification; 10 mM HEPES pH 7.5, 500 mM NaCl, 2 mM β-mercaptoethanol, 5% glycerol; mass estimated from a standard curve; self-association
[3] = biological target: the molecule itself; experiment: differential scanning fluorimetry (Tm) + native gel or EMSA; oligomeric state inferred from Tm without inhibitor (10 mM HEPES pH 7.5, 100 mM NaCl, 3 mM MgCl2, 0.5 mM TCEP, 5 μM protein), supported by native-PAGE (S2 Fig); self-association

T1 sequence (O95749 whole entry Y246D/C247L): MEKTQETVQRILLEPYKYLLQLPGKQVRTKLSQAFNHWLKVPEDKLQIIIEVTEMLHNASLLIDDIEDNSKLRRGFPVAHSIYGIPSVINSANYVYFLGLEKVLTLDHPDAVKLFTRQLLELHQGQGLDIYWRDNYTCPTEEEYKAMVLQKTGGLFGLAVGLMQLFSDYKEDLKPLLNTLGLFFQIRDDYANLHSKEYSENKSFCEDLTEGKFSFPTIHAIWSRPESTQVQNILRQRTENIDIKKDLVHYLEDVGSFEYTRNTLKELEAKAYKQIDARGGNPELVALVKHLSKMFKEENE

## C=C(C)CCO[P@@](=O)(O)OP(=O)(O)O [IPP, isopentenyl pyrophosphate]
[1]
  X-ray crystal structure, 2.1 Å: clearly indicated the presence of IPP within its anticipated binding site in one subunit of the dimer mutant

B1: wild-type human geranylgeranyl pyrophosphate synthase (enzyme)
chain: MEKTQETVQRILLEPYKYLLQLPGKQVRTKLSQAFNHWLKVPEDKLQIIIEVTEMLHNASLLIDDIEDNSKLRRGFPVAHSIYGIPSVINSANYVYFLGLEKVLTLDHPDAVKLFTRQLLELHQGQGLDIYWRDNYTCPTEEEYKAMVLQKTGGLFGLAVGLMQLFSDYKEDLKPLLNTLGLFFQIRDDYANLHSKEYSENKSFCEDLTEGKFSFPTIHAIWSRPESTQVQNILRQRTENIDIKKYCVHYLEDVGSFEYTRNTLKELEAKAYKQIDARGGNPELVALVKHLSKMFKEENE
notes: geranylgeranyl pyrophosphate synthase (GGPPS), human; theoretical subunit mass printed as 37,424 Da; The printed subunit mass of 37,424 Da is larger than that of the untagged natural protein as I recall it, so a tag was probably kept; also called GGPPS; WT GGPPS
[2]
  stoichiometry N: 6

B2: human GGPPS Y246D/C247L mutant (enzyme)
chain: B1 chain with Y246D, C247L
notes: also called DL; DL mutant
[2]
  stoichiometry N: 2

B3: human GGPPS Y246D/C205A mutant (enzyme)
chain: B1 chain with C205A, Y246D
notes: also called DA; DA mutant
[3]
  stoichiometry N: 2

B4: human GGPPS Y246K/C247L mutant (enzyme)
chain: B1 chain with Y246K, C247L
notes: also called KL; KL mutant
[3]
  stoichiometry N: 2
